The record followed here is patent US20220332829A1 (NANJING SANHOME PHARMACEUTICAL, published 2022).

Numbering of substitutions follows the chain as printed.

Assay [1] concerns the target T1, B7-H3 on surface of tumor cell (786-0, MDA-MB-231, Raji-B7-H3 cells) (human, UniProt Q5ZPR3 29-534).
T1 sequence (looked up): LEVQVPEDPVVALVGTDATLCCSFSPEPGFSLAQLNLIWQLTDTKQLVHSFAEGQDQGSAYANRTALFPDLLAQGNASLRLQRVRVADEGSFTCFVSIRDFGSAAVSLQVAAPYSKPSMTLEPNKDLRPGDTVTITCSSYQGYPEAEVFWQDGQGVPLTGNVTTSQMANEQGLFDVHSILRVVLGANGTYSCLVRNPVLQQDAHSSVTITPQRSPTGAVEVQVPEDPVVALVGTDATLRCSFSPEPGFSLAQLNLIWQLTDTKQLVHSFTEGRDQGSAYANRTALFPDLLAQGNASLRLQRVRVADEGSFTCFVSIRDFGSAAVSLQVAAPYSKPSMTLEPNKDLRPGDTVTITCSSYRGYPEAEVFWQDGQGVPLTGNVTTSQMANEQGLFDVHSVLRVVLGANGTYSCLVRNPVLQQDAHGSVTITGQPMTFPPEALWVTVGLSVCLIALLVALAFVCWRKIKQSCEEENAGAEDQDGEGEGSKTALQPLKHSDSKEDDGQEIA
As to the kind of experiment: cell-based or functional assay.

Assay [2] concerns the target T1, B7-H3 on surface of tumor cell (786-0, …). As to the kind of experiment: FACS on 786-0 cells. How it is done: (§1) The binding activity of antibodies to B7-H3 on the surface of tumor cells was analyzed by FACS. Mean fluorescence intensity (MFI) and EC₅₀ detected by FACS indicate the binding activity of the antibody to cells. After 786-0 and MDA-MB-231 cells were digested, they were resuspended in 2% FBS-PBS solution and counted. After raji-B7-H3 cells were collected, they were resuspended in 2% FBS-PBS and counted. The above cells were plated in a cell plate with 1×10⁵ cells per well. The anti-B7-H3 antibody of the present disclosure was used as the primary antibody and added to cell plates in gradient dilution starting from 20 μg/mL with a total of 8 concentrations: 20,000 ng/mL, […], 2,000 ng/mL, 400 ng/mL, 80 ng/mL, 16 ng/mL, 3.2 ng/mL, and 0.64 ng/mL respectively. The plates were incubated at 4° C. for 1 h with hBRCA84D as the positive control antibody. PE-Anti-Human IgG (Biolegend, Cat. No. 409303, 1.25 μl/well) was used as the secondary antibody, washed, and detected for the fluorescence intensity generated by the binding of the antibody to the cell surface by a flow cytometer.

Assay [3] shares this target. Description: FACS on Raji-B7-H3 cells. The procedure: as §1
For assay [4] the target is unchanged. As to the kind of experiment: FACS on MDA-MB-231 cells. The procedure:
as §1

Assay [5] addresses T2, human 4Ig-B7-H3-His protein (human, UniProt Q5ZPR3 29-466).
T2 construct: also called human B7-H3 protein
T2 sequence: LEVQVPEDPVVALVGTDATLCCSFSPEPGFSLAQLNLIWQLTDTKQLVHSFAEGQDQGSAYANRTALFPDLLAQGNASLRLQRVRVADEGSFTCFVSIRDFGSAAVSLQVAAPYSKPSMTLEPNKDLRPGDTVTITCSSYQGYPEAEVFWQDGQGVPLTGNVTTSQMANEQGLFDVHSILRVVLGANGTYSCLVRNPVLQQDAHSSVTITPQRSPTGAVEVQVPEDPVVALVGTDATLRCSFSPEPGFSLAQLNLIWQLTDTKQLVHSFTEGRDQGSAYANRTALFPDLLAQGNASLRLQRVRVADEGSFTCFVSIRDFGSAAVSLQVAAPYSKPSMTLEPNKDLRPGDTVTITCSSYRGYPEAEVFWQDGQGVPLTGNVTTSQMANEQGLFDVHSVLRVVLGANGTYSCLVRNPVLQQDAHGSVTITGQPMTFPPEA
Description: Biacore X100 SPR, 4Ig-B7-H3-His coupled to CM5 chip, antibody injected. From the text: The humanized anti-B7-H3 antibodies prepared in Example 4 were subjected to affinity assay by Biacore. The antigen 4Ig-B7-H3-His was first coupled to the surface of a CM5 chip (GE, Cat. No. BR100012), and the active groups of the uncoupled protein were blocked with ethanolamine. After the baseline was stable, the hu39-01, hu65-13, and hBRCA84D antibodies were respectively diluted in equal proportions. The diluted antibodies of each concentration were placed on the sample injection tray of the instrument in sequence, and the program was set to inject samples respectively.
Background: Surface plasmon resonance follows binding to a sensor surface in real time, without labels.

B1: SHS007-39-CHI (antibody, human IgG1, V domains shown)
VH: EVQLQQSGPELVKPGASVKISCKTSGYTFTEYTIHWMKQSHGKSLEWIGGLNPNTGGTTYNQKFKDKATLTVDKSSSTAYMALRSLTSEDSAVYYCARKGGWFFLDYWGQGTTLIVSS
VL: QIVLTQSPAIMSASPREKVTMTCSASSSVSYMHWYQQKSGTSPKRWIYDTSKLASGVPARFRGSGSGTSYSLTISNMEAEDAATYYCQQWSSNPPTFGGGTKVEIK
In the case of B1, the “EC50 Ratio (ADCC, LDH method; EC50 of hBRCA84D divided by EC50 of the antibody; 786-0 target cells, human PBMC effectors)” value in assay [1] is 212.

B2: SHS007-65-CHI (antibody, human IgG1, V domains shown)
VH: EVQLVESGGGLVKPGGSLKLSCAASGFTFSDYGIHWVRQAPEKGLEWVAYISSGSNTIYYADTVKGRFTISRDNAKNTLFLQMTSLRSEDTAIYYCATMVTRWFYYAMDYWGQGTSVTVSS
VL: B1 VL with R16G, H33Y, R62S, S75N, G99A, V103L, I105L
For B2, in assay [1], the “EC50 Ratio (ADCC, LDH method; EC50 of hBRCA84D divided by EC50 of the antibody; 786-0 target cells, human PBMC effectors)” value worked out at 18.6.

B3: SHS007-17-CHI (antibody, human IgG1, V domains shown)
VH: QVHLQQSGPELVKPGASVKMSCKASGFTFTDYVVSWVKQRTGQGLEWIGEIYPGGGFIHYNEKFKGKATLTADKSSNTAYMQLTSLTSEDSAVYFCARFPKYYFDYWGQGTTLTVSS
VL: DVVMTQTPLSLPVSLGDQASISCRSSQSIVHSNRYTYLEWYLQKPGQSLKLLIYGVSNRFSGVPDRFSGSGSGTDFTLKISRVEAEDMGVYYCFQSTLFPWTFGGGTKLEIK
With B3, in assay [1], the “EC50 Ratio (ADCC, LDH method; EC50 of hBRCA84D divided by EC50 of the antibody; 786-0 target cells, human PBMC effectors)” value came out at 20.1.

B4: SHS007-59-CHI (antibody, V domains shown)
VH: EVQLQQSGPELVKPGTSVKIPCKASGYTFTDYHMDWVKQSHGKSLEWIGDINPNNGGTIYNQKFKGKATLTVDKSSSTAYMELRGLTSEDTAVYYCARGGLHDYWGPGTTLTVSS
VL: DIVMTQSQKFMSTKVGDRVSITCKASQSVGTAVAWYQQKPGQSPKLLIYSTSNRYTGVPDRFTNNASGTDFTLTISNVQSADLADYFCQQYGNYPLTFGGGTKLEIK
Turning to B4, in assay [1], the “EC50 Ratio (ADCC, LDH method; EC50 of hBRCA84D divided by EC50 of the antibody; 786-0 target cells, human PBMC effectors)” value stood at 4.4.

B5: SHS007-51-CHI (antibody, V domains shown)
VH: EVQLVESGGDSVKPGGSLKLSCAASGFTFSSFGMSWVRQTPDKRLEWVATINSGDNYSYSPDSVKGRFTISRDNAKNILYLQMSSLKSEDTAMYYCARPHIFYYGSPAWFAYWGQGTLVTVSA
VL: DVVMTQTPLSLPVSLGDQASVSCRSRQSLVHSNGNTYLHWYLQRPGQSPKLLIYKVSNRFSGVPDRFSGSGSGTDFTLKISRVEAEDLGVYFCSQSTHVPLTFGAGTKLELK
For the molecule B5, the “EC50 Ratio (ADCC, LDH method; EC50 of hBRCA84D divided by EC50 of the antibody; 786-0 target cells, human PBMC effectors)” value in assay [1] was found to be 6.6.

B6: hu65-13 (antibody, human IgG1, V domains shown)
VH: B2 VH with K13Q, K19R, E42G, A49S, T78S, F80Y, T84N, S88A, I93V, S116T
VL: EIVLTQSPATLSLSPGERATLSCSASSSVSYMYWYQQKPGQAPRRLIYDTSKLASGVPARFSGSGSGTDYTLTISSLEPEDFAVYYCQQWSSNPPTFGQGTKLEIK
notes: expressed in HEK293E; also called humanized anti-B7-H3 antibody hu65-13
For orientation: EC50 means the concentration needed to bring the measured effect to its halfway point. A high value points to a less potent agent. One may read the Kd as the constant that tells how readily two partners part at equilibrium. For orientation: koff means the first-order rate constant of dissociation. High values mean a short-lived complex, low ones a long-lived complex. By kon is commonly meant the rate constant with which the complex forms. Read a low kon as slower complex formation. Consider B6, for which, in assay [2], the EC50 worked out at 0.266 µg/mL and the “Mean fluorescence intensity (MFI)” value was found to be 566000. For the same molecule, in assay [3], the 50% effective concentration (EC50) came out at 0.266 µg/mL and the “Mean fluorescence intensity (MFI)” value amounted to 566000. In addition, in assay [4], the EC50 came to 0.14 µg/mL and the “Mean fluorescence intensity (MFI)” value is 151000. In assay [5], this molecule returned a Kd of 0.198 nM, an off-rate (koff) of 1.89e-05 s⁻¹ and a kon of 95400 M⁻¹ s⁻¹.

B7: SHS007-72-CHI (antibody, V domains shown)
VH: QVQLVQSGPELKKPGETVKISCKASGYTFTNYGMYWVKQAPGEGLKWMGWINTHTGEPTYGDDFKGRFAFSLETPATIAFLEISILKNEDTATYFCARKSFGDFIYAMDFWGQGTSVTVSS
VL: DIQMTQTTSSLSASLGDRVTISCRASQDIGKYLNWYQQKPDGTVKLLIYYTSRLHLGVPSRFSGSGSGTDFSLTISNLEQEDTATYFCQQGTTLPPTFGGGTKVEIK
For B7, the “EC50 Ratio (ADCC, LDH method; EC50 of hBRCA84D divided by EC50 of the antibody; 786-0 target cells, human PBMC effectors)” value in assay [1] worked out at 7.1.

B8: SHS007-95-CHI (antibody, V domains shown)
VH: EVKLVESGGELVKPGGSLKLSCAASGFTLSSYVMSWVRQTPEKRLEWVAAISRYGDPTNFPDNMRDRFTISRDNAKNTLSLQMSSLRSEDTALYFCARHHFDGTSWYFDVWGPGTTVTVSS
VL: EIVLTQSPALMAASPGERVTITCSVSSSISSIDLHWYQQKSGTFPKLWIYGTSNLASGVPVRFSGSGSGTSYSLTISTMEAEDAATYYCQQWSSFPLTFGSGTKLEIK
With B8, the “EC50 Ratio (ADCC, LDH method; EC50 of hBRCA84D divided by EC50 of the antibody; 786-0 target cells, human PBMC effectors)” value in assay [1] worked out at 11.4.
